The results in this text go back to publication PMC4388643.

Series [1] is described as follows: zymography. Conditions: glycan lost; control: nLcc4 (untreated).
A short description of series [2]: activity versus pH and temperature. Conditions: glycan lost; control: nLcc4 (untreated).
The nature of series [3]: zymography of culture media. Conditions: glycan lost; control: rLcc4-WT (P. pastoris).

B1: Lcc4 laccase (nLcc4): Endo H, 1 h to overnight (protein)
parent chain: MKALSFLTPIVTLALVAGAFASVGPVANLKIGNAAVSPDGYTRDAVVVNGATPGPLIVGNKGDNFRLNVIDELTNHTMLKSTSIHWHGFFQHGTNWADGGAFVNQCPISSGHSFSYNFQAKDQAGTFWYHSHLSTQYCDGLRGPFVVYDPKDPHKKLYDVDNESTVITLEDWYHTAARLGPRFPLGSDSTLINGLGRSATTATGDLAVIKVTRGKRYRFRLVSLSCDPFYTFSIDGHNMTIIEADAVNTKPHTVDSLEIFAGQRYSFILNANQPVDNYWVRANPNFGNVGFTNGINSAILRYDGAAVAEPATAIPPASVTPLLETDLHPLVSTPVPGSPVAGGVDKALNFVFNFDGTNFFINDATFTPPSVPVLLQILSGAQAAQDLLPSGSVIPLPALSTIELSFPATANAPGVPHPFHLHGHTFAVVRSAGSTAYNYEDPVWRDVVSTGTPAAGDNVTIRFVTDNPGPWFLHCHIDFHLEAGFAVVFAEDLPGTPAANPVPQSWSDLCPIYDALAEDDQ
As for B1, the enzymatic_activity entry in series [1] is recorded as “no change”.

B2: Lcc4 laccase (nLcc4): Endo H (dLcc4) (protein)
parent chain: B1 parent chain
For B2, the “other: optimal pH and temperature” value in series [2] is given as “no change”.

B3: Lcc4 laccase (nLcc4): N458D (protein)
parent chain: B1 parent chain
Consider B3, for which, in series [3], the enzymatic_activity entry was “abolishes”.

B4: Lcc4 laccase (nLcc4): N75D (protein)
parent chain: B1 parent chain
B4: the enzymatic_activity entry in series [3] is recorded as “decreases, the N75D mutant showed activity at around 60 s”.

B5: Lcc4 laccase (nLcc4): N238D (protein)
parent chain: B1 parent chain
With B5, in series [3], the enzymatic_activity entry is reported as “abolishes”.
